# Results published in article PMC4124618.
# Tested on: Cc1[nH]c2ccccc2c1CCN
# Assay: steady-state kinetics of halogenation
# Type: biochemical, Lentzea aerocolonigenes
# Conditions: 21 °C
Substance,Km [µM],kcat [s⁻¹],kcat/Km [M⁻¹ s⁻¹],Km (variant 3-LSR) [µM],kcat (variant 3-LSR) [s⁻¹],kcat/Km (variant 3-LSR) [M⁻¹ s⁻¹]
RebH (Lentzea aerocolonigenes),16.8 ± 3.8,0.06 ± 0.0057,3600,–,–,–
RebH (Lentzea aerocolonigenes; E423D/E461G/K145M/M71V/N166S/Q494R/S130L/S2P),–,–,–,40.2 ± 3.7,0.013 ± 0.00036,330
